Experimental data as given in patent US20060239990A1, “Protein Arginine N-Methyltransferase 2 (PRMT-2)” (priority 2003, published 2006).

Columns and labels:
[1] = target: T1, GST-Stat3 (Mus musculus, UniProt P42227); test: In vitro methylation assay of GST-Stat3; format: biochemical; conditions: Flag fusion protein from transfected HEK293 cells, [3H]-AdoMet
T1 construct: The same region with the Arg31→Ala mutant was generated from the wild-type pGEX6P-3 STAT3 construct; made in house; host or cells: E. coli (BL21 (DE3); Top10 One Shot)
T1 sequence (P42227 1-131 limits assumed): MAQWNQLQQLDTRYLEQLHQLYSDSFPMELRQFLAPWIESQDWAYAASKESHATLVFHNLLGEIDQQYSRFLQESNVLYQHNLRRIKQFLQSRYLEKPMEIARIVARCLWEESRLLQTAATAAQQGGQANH
Description: 293 cells were transiently transfected with expression vectors encoding Flag-tagged wild-type or mutant mouse PRMT2. After incubation for 48 hr, cells were lysed with 500 μl of RIPA buffer and 1.8 mg of 293 cell lysates was incubated with 40 μl of Anti-Flag M2 Affinity Gel (Sigma) for 3 hr at 4° C. Immune complexes were washed three times with lysis buffer without proteinase inhibitor and subjected to in vitro methylation reaction. Mouse fibroblasts were grown to 80% confluence on a 10 cm plate. Cells were washed and scraped off the plate into 500 μl of PBS (pH 7.4), and were lysed by sonication. After centrifugation at 15,000 rpm for 10 min at 4° C., the supernatants were used as the enzyme source. In vitro methylation reactions were performed by adding the immune complexes or cell lysates to 0.64 μg Histone and/or 1 μg of GST, GST-STAT3 or GST-STAT3 Arg31→Ala31 using 2 μCi of the methyl donor S-adenosyl-1[methyl-3H]methionine ([3H]-AdoMet) (Amersham Biosciences) in a final volume of 35 μl. The reactions were incubated for 1 hr at 4° C. and were terminated by addition of 3×SDS-loading buffer. […]

[2] = system: Stat3; test: Leptin-stimulated Stat3 immunoprecipitation and immunoblotting (methylation, PRMT-2 association); format: cell-based, mouse; conditions: leptin 100 nM
Description: Immunoprecipitation of STAT3 was performed as follows. Cells treated with or without 100 nM mouse leptin for selected times were washed with phosphate buffered saline and lysed in Nonidet P-40 (NP-40) buffer (20 mM Tris-HCl, pH 8.0, 150 mM NaCl, 25 mM EDTA, 1.0% Triton-X, 0.1% SDS, 10% glycerol, 100 mM NaF, 100 mM Na3P2O7, 1.0% deoxycholic acid, 1 mM Na3VO4, 1× protease inhibitors cocktail; Roche Diagnostic Corp., Indianapolis, Ind.) or RIPA buffer (50 mM Tris-HCl, pH 8.0, 150 mM NaCl, 1% NP-40, 0.5% Na-deoxycholate, 0.1% SDS, 1× protease inhibitors cocktail). After the lysates were incubated to solubilize proteins for 30 min at 4° C., and before they were centrifuged at 15,000 rpm for 10 min at 4° C., the supernatants were rocked with either polyclonal anti-STAT3 antibodies (1:2,000) or monoclonal anti-Flag antibodies for 14 hr at 4° C., and then with protein G agarose for 3 hr at 4° C. For in vitro stimulation, the supernatants from extracted tissue homogenates were rocked with 2 μg polyclonal anti-IRS-1 antibody, and then protein G agarose for 3 hr at 4° C. The beads were washed three times with lysis buffer without proteinase inhibitors, solubilized in 15 μl 3×SDS-polyacrylamide gel electrophoresis (PAGE) buffer (187.5 mM Tris-HCl, 6% SDS, 30% glycerol, 150 mM dithiothreitol, 0.3% bromophenol blue, pH6.8), and subjected to the immunoblotting.
Immunoblotting was performed by boiling samples for 5 min at 95° C. followed by centrifugation for 1 min at 4° C. Aliquots of the supernatant were subjected to 7.5, 10% or 4-15% SDS-PAGE. Proteins in the gel were transferred to a nitrocellulose membrane by electroblotting. The membranes were treated with either anti-pTyr, anti-STAT3, anti-phospho STAT3, anti-α-metR, anti-IRS-1, anti-Flag, anti-phospho IRS-1, anti-arginine (mono- and di-methyl), or anti-β-actin antibodies followed by incubation with secondary antibodies conjugated with HRP. Immunoreactive proteins were detected either by ECL or by ECL plus system (Amersham Pharmacia Biotech). In some cases, bands were quantified using the NIH Image software (Image J version 1.2; National Institutes of Health, Bethesda, Md.). The figures are representative of 3 experiments.

[3] = Leptin sensitivity study in mice; format: in vivo, mouse; conditions: for food intake: after administration of leptin
Description: To determine leptin sensitivity, 9- to 13-week-old mice, matched for similar body weight at both day 4 and day 0, were individually caged and body weight and food intake were measured once daily (5:30 pm) throughout the experiment. For the first 7 days, mice were injected intraperitoneally twice daily (12:00 pm and 6:00 pm) with PBS to establish a baseline of weight change and food intake. […] Body weight and food intake was measured once a day during the experiment.

[4] = system: hypothalamic Stat3; test: Phospho-Stat3 immunohistochemistry of hypothalamus after leptin; format: in vivo, mouse; conditions: wild-type mice, leptin 1.67 μg/g body weight peripheral
Description: After overnight fasting, brains of wild-type and PRMT2−/− mice treated with or without mouse leptin (1.67 μg/g body weight) for 90 min were removed immediately after decapitation, frozen in 2-methylbutane with a bed of crushed dry ice for 6 sec. 16-μm thick coronal sections were cut on a cryostat at −20° C. and were thaw-mounted on slides (K•D Medical Inc., Columbia, Md.). Sections were fixed with acetone for 10 min at 4° C. and then incubated in methanol for 30 min at −20° C. After treatment with 0.3% H2O2 in methanol for 30 min at room temperature to block endogenous peroxidase, sections were blocked in Tris-buffered saline (TBS)-Ca (100 mM Tris-HCl, pH 7.4, 150 mM NaCl, 1 mM CaCl2) containing 10% normal goat serum and 3% bovine serum albumin (BSA) and incubated with a rabbit anti-pStat3 (pY705) diluted in the same blocking solution as previously described above overnight at 4° C. On the next day sections were washed three time with TBS-Ca, incubated with a biotinylated secondary goat antibody in TBS-Ca containing 1% BSA for 1 hr at room temperature and then treated with ABC solution (Vector laboratories, Inc., Burlingame, Calif.) for 1 hr. In a final step, the signal was developed by DAB solution (Vector laboratories), giving a brown precipitate, dehydrated and mounted using Permount (Sigma-Aldrich). […]

[5] = system: hypothalamic POMC and NPY mRNA; test: Leptin treatment, hypothalamic POMC and NPY mRNA by real-time PCR; format: in vivo, mouse; conditions: for weight loss: leptin 0.5 μg/g body weight
Description: Mice in the 8-12 week of age allowed free access to chow and water were intraperitoneally injection for 3 days with either PBS or recombinant mouse leptin (Sigma) at a dose of 0.5 μg/g body weight twice a daily (9:00 am and 7:00 pm). Hypothalamus was isolated from the mice at 6 hr after leptin treatment and snap-frozen. Total hypothalamic RNA was isolated using Trizol (Invitrogen) according to the manufacturer's instructions. Total RNA was treated with ribonuclease-free deoxyribonuclease (DNase) I for 30 min using a commercially available kit (Invitrogen) to eliminate contamination of genomic DNA. The RNA samples were reverse transcribed with TaqMan Reverse Transcription Reagents (Applied Biosystems, Foster City, Calif.) and subjected to automated fluorescent RT-PCR on an ABI PRISM 7700 Sequence Detection System (Applied Biosystems). All TaqMan probes were labeled with the reporter fluorescein at the 5′-end and with the quencher tetramethylrhodamine at the 3′-end. The following oligonucleotides derived form the mouse POMC and NPY were synthesized and used as primers and probes for Real-time PCR: POMC (sense, 5′-[…]-3′ (SEQ ID NO:42), antisense, 5′-[…]-3′ (SEQ ID NO:43), probe, 5′-6FAM-[…]-TAMRA-3′, SEQ ID NO:44); NPY (sense, 5′-[…]-3′ (SEQ ID NO:45), antisense, 5′-[…]-3′ (SEQ ID NO:46) probes, 5′-6FAM-[…]-TAMRA-3′ (SEQ ID NO:47)). TaqMan Rodent GAPDH Control Reagents (Applied Biosystems) were used as a control primers and probe for each template. Each predicted RT-PCR product spanned an intron/exon junction. The reactions were incubated for 2 min at 50° C., followed by 10 min at 95° C., and then 40 cycles of 15 sec at 95° C. and 1 min at 60° C. Each RT-PCR reaction was performed in triplicate in a final volume of 20 μl and assessed by the comparative Ct (ΔΔCt) method (Applied Biosystems, ABI Prism 7700 Users Bulletin #2).

B1: PRMT2-Flag: Flag-tagged wild-type mouse PRMT2 fusion protein purified from transfected HEK293 cells (protein)
chain: MEAPGEGPCSESQVIPVLEEDPVDYGCEMQLLQDGAQLQLQLQPEEFVAIADYTATDETQLSFLRGEKILILRQTTADWWWGERAGCCGYIPANHLGKQLEEYDPEDTWQDEEYFDSYGTLKLHLEMLADQPRTTKYHSVILQNKESLKDKVILDVGCGTGIISLFCAHHARPKAVYAVEASDMAQHTSQLVLQNGFADTITVFQQKVEDVVLPEKVDVLVSEWMGTCLLFEFMIESILYARDTWLKGDGIIWPTTAALHLVPCSAEKDYHSKVLFWDNAYEFNLSALKSLAIKEFFSRPKSNHILKPEDCLSEPCTILQLDMRTVQVPDLETMRGELRFDIQKAGTLHGFTAWFSVYFQSLEEGQPQQVVSTGPLHPTTHWKQTLFMMDDPVPVHTGDVVHGFCCVTKKSGMEKAHVCLSELGCHVRTRSHVSTELETGSFRSGGDS
modifications: left off: small tags and cut ends
notes: Flag-tagged wild-type mouse PRMT2 fusion protein purified from transfected HEK293 cells
methylation of GST-Stat3 [1]: could methylate GST-Stat3

B2: leptin: recombinant mouse leptin (Sigma-Aldrich Inc.) (protein, UniProt P41160 22-167, looked up)
Leptin: VPIQKVQDDTKTLIKTIVTRINDISHTQSVSAKQRVTGLDFIPGLHPILSLSKMDQTLAVYQQVLTSLPSQNVLQIANDLENLRDLLHLLAFSKSCSLPQTSGLQKPESLDGVLEASLYSTEVVALSRLQGSLQDILQQLDVSPEC
PRMT-2 co-precipitated with STAT3 ([2]; GT1-7 cells): enhanced that amount PRMT-2 that co-precipitated with STAT3 | Stat3 methylation ([2]; GT1-7 cells): remarkably increased at 5 min and sustained for 60 min | Stat3 methylation ([2]; PRMT2−/− VSMC): increased Stat3 methylation was not observed | Stat3 methylation ([2]; wild-type VSMC): evoked a transient methylation of Stat3 at 10 min | food intake ([3]; PRMT2−/− mice): ~92% | weight change ([3]; PRMT2−/− mice, leptin 0.1 μg/g): continuously lost weight for the duration of the study | food intake ([3]; wild-type mice): did not alter food intake | weight change ([3]; wild-type mice, leptin 0.1 μg/g peripheral injection, for 5 days): -0.158 g | time of peak tyrosine phosphorylation of hypothalamic Stat3 [4]: 45 min | higher level of hypothalamic POMC mRNA compared with leptin-treated wild-type mice ([5]; PRMT2−/− mice, leptin 0.5 μg/g): ~90% | hypothalamic NPY mRNA expression ([5]; PRMT2−/− mice, leptin 0.5 μg/g): significantly reduced | weight loss ([5]; PRMT2−/− mice): -1.0 ± 0.2 g | increase of hypothalamic POMC mRNA compared with untreated mice ([5]; wild-type mice, leptin 0.5 μg/g): ~53% | weight loss ([5]; wild-type mice): -0.59 ± 0.29 g
